Reference: patent US7037674

Tested on: cytochrome c

Chain of cytochrome P-450 reductase purified from P. somniferum cell suspension cultures (chain, as listed by the source): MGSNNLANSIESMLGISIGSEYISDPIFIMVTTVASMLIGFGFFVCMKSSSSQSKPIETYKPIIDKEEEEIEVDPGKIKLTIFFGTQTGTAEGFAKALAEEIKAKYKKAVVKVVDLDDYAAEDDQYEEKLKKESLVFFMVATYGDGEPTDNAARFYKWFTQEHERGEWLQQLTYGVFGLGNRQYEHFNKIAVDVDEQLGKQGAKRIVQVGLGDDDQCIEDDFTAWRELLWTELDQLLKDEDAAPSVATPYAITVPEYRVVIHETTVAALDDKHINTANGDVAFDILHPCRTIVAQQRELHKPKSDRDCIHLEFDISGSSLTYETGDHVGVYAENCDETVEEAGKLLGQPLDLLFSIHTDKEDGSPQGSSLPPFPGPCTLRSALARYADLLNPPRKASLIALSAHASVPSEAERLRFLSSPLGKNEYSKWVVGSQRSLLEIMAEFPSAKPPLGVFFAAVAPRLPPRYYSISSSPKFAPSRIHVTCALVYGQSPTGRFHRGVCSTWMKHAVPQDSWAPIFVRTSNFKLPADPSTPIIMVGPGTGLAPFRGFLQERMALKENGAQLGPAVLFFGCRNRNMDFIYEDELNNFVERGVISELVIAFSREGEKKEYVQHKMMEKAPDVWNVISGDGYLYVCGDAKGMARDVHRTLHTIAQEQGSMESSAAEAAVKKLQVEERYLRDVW

Question: How did the “Km (cytochrome c reduction, enzyme activity)” value turn out when “cytochrome P-450 reductase purified from P. somniferum cell suspension cultures” was run?
Answer: Its value is “The Km value for cytochrome c was 8.3 µM”.
